Patent publication US20190023770A1

Columns and labels:
Test in all cases: cell-based or functional assay
[1] = biological target: hemagglutinin of influenza A virus H3N2 A/Aichi/2/1968 (influenza A virus A/Aichi/2/1968 (H3N2)) (UniProt P03437)
[2] = biological target: hemagglutinin of influenza A virus H3N2 A/Hong Kong/1/1968 (influenza A virus A/Hong Kong/1/1968 (H3N2)) (UniProt Q91MA7)
[3] = biological target: hemagglutinin of influenza A virus H3N2 A/Port Chalmers/1/1973 (influenza A virus A/Port Chalmers/1/1973 (H3N2))

B1: monoclonal antibody 39.29 NWPP (antibody, V domains shown)
VH: EVQLVESGGGVVQPGKSLRLSCAASGLTFSSYAVHWVRQAPGKGLEWVTLISYDGANQYYADSVKGRFTISRDNSKNTVYLQMNSLRPEDTAVYYCAVPGPVFGIFPPWSYFDNWGQGILVTVSS
VL: EIVLTQSPATLSVSPGERATLSCRASQVISHNLAWYQQKPGQAPRLLIYGASTRASGIPARFSGSGSGTDYTLTITSLQSEDFAVYYCQHYSNWPPRLTFGGGTKVEIK
B1 showed an in vitro IC50 (neutralization of virus infection of MDCK cells) [1] of 0.035 µM, an in vitro IC50 (neutralization of virus infection of MDCK cells) [2] of 0.0451 µM and an in vitro IC50 (neutralization of virus infection of MDCK cells) [3] of 0.0022 µM.

B2: monoclonal antibody 39.29 NCv1 (antibody, V domains shown)
VH: QVQLVESGGGVVQPGKSPRLSCAASGPTFSSYAVHWVRQAPGKGLEWVTLISYDGANQYYADSVKGRFTISRDNSKNTVYLQMNSLRPEDTAVYYCAVPGPVFGIFPPWSYFDNWGQGILVTVSS
VL: EIVLTQSPATLSVSPGERATLSCRASQVISHNLAWYQQKPGQAPRLLIYGASTRASGIPARFSGSGSGTDYTLTITSLQPEDFAVYYCQHYSNWPPRLTFGGGTKVEIK
In the case of B2, the in vitro IC50 (neutralization of virus infection of MDCK cells) [1] is reported as 0.035 µM and the in vitro IC50 (neutralization of virus infection of MDCK cells) [3] is reported as 0.0029 µM.
